According to the DeepSol protein solubility set:

Assay: soluble on expression in E. coli; label from the status in PepcDB or PDB records

| Sequence | soluble on expression in E. coli |
| --- | --- |
| MSLIDFHFHAPVKEFLDFLGEFGEPAIKYFNAKVEVKGLKETLDYYESFGIKRFVVLPIDSTTFLGRRIPNQVINLDDRIVKFISVDPSKPNADEELKRSIKEFEPVGVKLHPQLQGFHPLDERALKIYEIIDNHGLIVVFHTGTSGIGAGVKSSIRLDYGRPIYFDEIAVRFQNMKIILAHFGWPWTEEAIAIALHKPNVYLDLSGWAPRYIPQVIWSNAKRLSDKLLFGSDFPLIRPERWLEEFKSVNLSQDIKDKILKHNAEKLVKKSEGHHHHHH | not soluble |
| MSRNQIYITQEQFDFFCQTQRPYEGFVEGVGYAFVHRGFVNPHANRPTNPFRQTKGYVLPFKQQLIEVSPDLIANSLKCNKTTDTPQEAPERDSRYLGERFYTKDGRYVYIGTMSGGWVCYDRSGNRILEQLPEIIVYSSKEPGRSIIGTGKD | not soluble |
| MPHTSSDVADFKEVRHIRGDINLKPFIAIWEVTRACGLVCQHCRADAQHEPHPEQLTTEQGKQLLSDLASYERPKPLVVLTGGDPFERQDLEELVDYGTSLGLNVSLSPSVTPRLTPERIHRLYELGGKAMSMSLDGATAETHDAFRGFSGTFDTTVKRAADILQAGFRLQINSTLTKSNIREAPALLKTVMGMGAKMWYVFFLVPTGRGAALNALNPQEREDVLHWLADVSDRIAIKTTEAPQYRRVVIQQRLRKEGQLDKYQGGELYRYLTQKTTELLGAHPVQPRRPRPPMAVNSGSGFVFIDHIGDVYPSGFLPIHCGNVKQASIKTIYSQSPTFQALRDPNHWHGKCSVCEFHDVCGGSRSTAYALTGDVRASDPTCVYMPQPWLDAGHSGVED | not soluble |
| MQPVTKNGESMNKTALLLTVVGAVLLTGCARQENEYTVKEYTSMANPASVYCVEQGGQLEMVTENEQRVTYCVTKDGEKIEQWEYFRQNHDQQ | not soluble |
| MVADSQPGHIDQIKQTNAGAVYRLIDQLGPVSRIDLSRLAQLAPASITKIVREMLEAHLVQELEIKEAGSRGRPAVGLMVETEAWHYLSIRISRGEIFLALRDLSSKLVVEECLPLPLTEATPLLERIITHVDRFFTRHQQKLERLTSIAITLPGIIDTENGVVHRMPYYEDVKEMPLGDSLERHTGVPVYIQHDISAWTMAEALFGASRGARDVIQVVIDHNVGAGVITDGHLLHAGSSSLVEIGHTQVDPYGKRCYCGNHGCLETIASVDSVLELTQLRLNQSMSSMLHGQPLTVDSLCQAAMQGDLLAKDIISGVGAHVGRILAIMVNLFNPQKILIGSPLSKAADILFPAIADSIRQQALPAYSRNTVVESTQFTNQGTMAGAALVKDAMYNGSLLIRLLQG | not soluble |
| MENLKKYLEVAKIAALAGGQVLKENFGKVKKENIEEKGEKDFVSYVDKTSEERIKEVILKFFPDHEVVGEEMGAEGSGSEYRWFIDPLDGTKNYINGFPIFAVSVGLVKGEEPIVGAVYLPYFDKLYWGAKGLGAYVNGKRIKVKDNESLKHAGVVYGFPSRSRRDISIYLNIFKDVFYEVGSMRRPGAAAVDLCMVAEGIFDGMMEFEMKPWDITAGLVILKEAGGVYTLVGEPFGVSDIIAGNKALHDFILQVAKKYMEVAV | soluble |
| MSQEIYDYANQLERAVRALPEYQKVLEVKEAIQADVSASELFDEFVAMQEKIQGMMQSGQMPTAEEQTSIQELSQKIEANDQLKAYFEAQQALSVYMSDIERIVFAPLKDLVK | not soluble |
| MSLENIMTLPKIKQVRAWFTGGATAEKGAGGGDYHDQGANHWIDDHIATPMSKYRDYEQLRQSFGINVLGTLVVEVEAENGQTGFAVSTAGEMGCFIVEKHLNRFIEGKCVSDIKLIHDQMLNATLYYSGSGGLVMNTISCVDLALWDLFGKVVGLPVYKLLGGAVRDEIQFYATGARPDLAKEMGFIGGKMPTHWGPHDGDAGIRKDAAMVADMREKCGEDFWLMLDCWMSQDVNYATKLAHACAPYNLKWIEECLPPQQYEGYRELKRNAPVGMMVTSGEHHGTLQSFRTLSETGIDIMQPDVGWCGGLTTLVEIAAIAKSRGQLVVPHGSSVYSHHAVITFTNTPFSEFLMTSPDCSTMRPQFDPILLNEPVPVNGRIHKSVLDKPGFGVELNRDCNLKRPYSHEGHHHHHH | soluble |
| SSGLVPRGSHMSEMIYGIHAVQALLERAPERFQEVFILKGREDKRLLPLIHALESQGVVIQLANRQYLDEKSDGAVHQGIIARVKPGRQYQENDLPDLIASLDQPFLLILDGVTDPHNLGACLRSADAAGVHAVIVPKDRSAQLNATAKKVACGAAESVPLIRVTNLARTMRMLQEENIWIVGTAGEADHTLYQSKMTGRLALVMGAEGEGMRRLTREHCDELISIPMAGSVSSLNVSVATGICLFEAVRQRS | soluble |
| MTEAAKKSTKKPVDDGNFDKEIISRWPDLELSQTRFMLNHPEVDSSVKEAKLEKLQETIKEFDMAPFYELVCADFKIVVDATQLAAMKAANQKKIDEITAEVEDAEKNLGESEVRQGLLRKFEYYCQIGDKDNALKAYTATYEKTVGMGYRIDVVFAMIRVGLFFLDHHLINKFITKAKELMEQGGDWERKNRLRSYEALYRMSVRDFAGAADLFLEAVPTFGSYELMTYENLILYTVITTTFALDRPDLRTKVIRCNEVQEQLTGGGLNGTLIPVREYLESYYDCHYDRFFIQLAALESERFKFDRYLSPHFNYYSRGMRHRAYEQFLTPYKTVRIDMMAKDFGVSRAFIDRELHRLIATGQLQCRIDAVNGVIEVNHRDSKNHLYKAVIKDGDILLNRIQKLARVINA | not soluble |
| MGSDKIHHHHHHMSILEVKNLSHGFGDRAIFEDVSFRLLKGEHIGLVGANGEGKSTFMSIVTGKMLPDEGKVEWSKYVTAGYLDQHSVLAERQSVRDVLRTAFDELFKAEARINDLYMKMAEDGADVDALMEEVGELQDRLESRDFYTLDAKIDEVARALGVMDFGMDTDVTSLSGGQRTKVLLAKLLLEKPDILLLDEPTNYLDAEHIDWLKRYLQNYENAFVLISHDIPFLNDVINIVYHVENQQLTRYSGDYYQFQEVYAMKKSQLEAAYERQQKEIADLKDFVARNKARVATRNMAMSRQKKLDKMDIIELQSEKPKPSFDFKPARTPGRFIFQAKNLQIGYDRPLTKPLNLTFERNQKVAIIGANGIGKTTLLKSLLGIISPIAGEVERGDYLELGYFEQEVEGGNRQTPLEAVWNAFPALNQAEVRAALARCGLTTKHIESQIQVLSGGEQAKVRFCLLMNRENNVLVLDEPTNHLDVDAKDELKRALKEYRGSILMVCHEPDFYEGWIDQIWDFNNLT | not soluble |
| MAVNPATGKSDFVMMSEQQELGMGARYNQEILKQFPRYNDEKLQAYVQRVGERVARSSHRSNLQYHFTVIDSPDINAFALPGGYIYIHRGLIAYLGSEAELAAVLGHEVGHVTARHSVRQQSQASAWNILGQAVAIGTGVGAAGDLANVLGTAFVRGYGRDMELEADGLGAQYLARAGYDPTAMIQVVRVLKNQEDFAREEAARNGQAVQAGGYHGLFDTHPDNDRRLQEVVGPARQLANGQQEVGREVFLRHLEGMPFGDSASAGVRRGQNFYHAELDFTLSYPAGWKILNQPSALLGYPADEQSFIGMKLVPHDSRLTPAEFLRKNAGQRLAQEESLKQAGLNGYTAVVPGNPARRVAVIYQGDRAYLFVGVVKVGSLETQDDRFLSVIRSFRPLRDKERALAQPRRLHLVQVKAGQTLEQLAAGGEGSLSDSVARLRLLNDLYPSGEPRPGDWLKVVRLEHHHHHH | not soluble |
| MKRKVQVKNITIGEGRPKICVPIIGKNKKDIIKEAKELKDACLDIIEWRVDFFENVENIKEVKEVLYELRSYIHDIPLLFTFRSVVEGGEKLISRDYYTTLNKEISNTGLVDLIDVELFMGDEVIDEVVNFAHKKEVKVIISNHDFNKTPKKEEIVSRLCRMQELGADLPKIAVMPQNEKDVLVLLEATNEMFKIYADRPIITMSMSGMGVISRLCGEIFGSALTFGAAKSVSAPGQISFKELNSVLNLLHKSIN | not soluble |
| MCIHTIPYYSAKRRRIMDNQFFKNIEKKTGVKMQDVMNLAGSLQNANFKDENTVRSVINRVAQMANRRVPKELEDKIVESITSGKEKLDFGTISKMMDNKLEHHHHHH | not soluble |
| SMGGPQYGIAREDVVLNRILGEGFFGEVYEGVYTNHKGEKINVAVKTCKKDCTLDNKEKFMSEAVIMKNLDHPHIVKLIGIIEEEPTWIIMELYPYGELGHYLERNKNSLKVLTLVLYSLQICKAMAYLESINCVHRDIAVRNILVASPECVKLGDFGLSRYIEDEDYYKASVTRLPIKWMSPESINFRRFTTASDVWMFAVCMWEILSFGKQPFFWLENKDVIGVLEKGDRLPKPDLCPPVLYTLMTRCWDYDPSDRPRFTELVCSLSDVYQMEKDIAME | soluble |
| MDSTMTNYMGQENLPPALKLINDKSYQYSTHKHNIETSNDGTLHSYTIVLSREPLESPTSYNKYQKNVEPVQKENQKPKDLNKMTAGPHIAVKNSSGLVSQISSTTSSERKRRTLARPSSSSESDLKVGNIQQSNQYFTLPSVMKPSALSTEDPKKVIVQSNTSSSSMSDASSKKSLPTYTYLSGHTTGSARYVTMVNVKFLLLHCDVLQRRAQSMFTDEFPSDCRLEEVVINFHQLCCRQLLDQNFNPRLSYCIGELNYSDSKPVSANDMSKTLAQLATTQSIAQLSIIVDVTEKNMKLK | not soluble |
| MELGLYTFADVNPNPADGRGPEGARRLRELLEEIELADQVGLDVFGLGEHHRPDYVVSSPSTVLAAAAVKTKNIRLTSAVSVLSSDDPVRVFQQFSTVDLLSNGRAEIMAGRGSFIESYPLFGYDLEDYDVLFAEKLDLLLALREQEVVTWSGTKHPAINGRGVYPRPLQERLPVWIAVGGTPQSVARAGAMGLPVALAIIGGEYRRFAPLFDLYHEAARRAGQEKTKLRTSINVHGFIADTTDKAADQFYGPQAEVMNRIGRERGWGPTNRAHFDAARGPEGNLFLGEPELVAEKIIKAHGVFKNDRFLLQMAIGLMPHDQIMRGIELYGTKVAPLVRKELTGSADPVKATA | soluble |
| MGSSHHHHHHSSGLEVLFQGPHMETAIWIKNSKLPAVLVAAGAFDAAVQALSKQVGVVKLEPLKKYFTNIYEGCRTYIPSTPCELPAQLGYVRAYDDTVSEDQILPYVPGLDVVNEKMNEGYKNFKLNKPDIAIECFREAIYRITLLMVDDAEDEKLAHKILETAREYILGLSIELERRSLKEGNTVRMLELAAYFTKAKLSPIHRTNALQVAMSQHFKHKNFLQASYFAGEFLKIISSGPRAEQARKIKNKADSMASDAIPIDFDPYAKFDICAATYKPIYEDTPSVSDPLTGSKYVITEKDKIDRIAMISKIGAPASGLRIRV | soluble |
| SFDRALKPFLQSCHLRMLTDPVDQCVAYHLGRVRESLPELQIEIIADYEVHPNRRPKILAQTAAHVAGAAYYYQRQDVEADPWGNQRISGVCIHPRFGGWFAIRGVVLLPGIEVPDLPPRKPHDCVPTRADRIALLEGFNFHWRDWTYRDAVTPQERYSEEQKAYFSTPPAQRLALLGLAQPSEKPSSPSPDLPFTTPAPKKPGNPSRARSWLSPRVSPPASPGP | soluble |
| MVDNVLAILRMGDELADLAVDLFDGVTDPTGIAPATTRIVARAEELLSARGNGRDDIRIACGPGCMTCCTVNVSVLVPEAWTIAVWLRQHHDAGEVDRLAVRLTAAARAIRWLDDADRIRSGVTCPFLDERGWCSIHPVRPLMCRALTSTDPAQCRRALESRTSDEEVPLECNLLQKYLMEQAYRSLAAALERRGIDSAGRELVGTVARFLNEPWLADKFLVGRLITLPESLEHHHHHH | not soluble |
